Test results reported in patent US7482146B1, “Phenylethanolamine-N-methyltransferase sequence variants” (Mayo Foundation for Medical Education and Research, priority 2003, dated 2009).
Read-outs that look alike come from different tables or passages of the source.

What was measured:
[1] = tested on: PNMT; assay: Substrate kinetics: apparent Km values of recombinant PNMT allozymes for octopamine and SAM; assay type: biochemical, human; conditions: recombinant allozyme from COS-1 cells
Protocol: Expression constructs for the wild type and variant PNMT sequences were transfected into COS-1 cells using the TransFast™ reagent (Promega), with a 1:1 charge ratio. pSV-β-Galactosidase (Promega) was co-transfected as an internal control to make it possible to correct for transfection efficiency. The COS-1 cells were harvested after 48 hours and were homogenized with a Polytron homogenizer (Brinkmann Instruments, Westbury, N.Y.) in 25 mM potassium phosphate buffer, pH 7.8 that contained 1 mM dithiothreitol (DTT) and 1 mM EDTA. Cell homogenates were centrifuged at 15,000×g for 15 minutes, and the resultant supernatant preparations were used for enzyme assays and substrate kinetic studies.
Estimating Apparent Km Values: To estimate apparent Km values of PNMT for the octopamine substrate, a series of octopamine and SAM concentrations were tested with the recombinant allozymes. Blanks for each substrate concentration were included by assaying COS-1 cell cytosol after transfection with empty […] vector. […] Apparent Km values were calculated using the method of Wilkinson with a computer program written by Cleland. Wilkinson supra; and Cleland supra.

[2] = tested on: PNMT; assay: PNMT enzyme activity assay of recombinant allozymes (14C-SAM methylation of octopamine); assay type: biochemical, human; conditions: recombinant allozyme in COS-1 cell homogenate; 65.9 μM octopamine, 24.22 μM 14C-SAM; corrected for transfection efficiency
Description: Recombinant PNMT Expression Constructs and Allozyme Expression: PNMT cDNA sequences for the three non-synonymous cSNPs that were observed during the resequencing experiments were created using the QuickChange Site-Directed Mutagenesis kit (Stratagene, La Jolla, Calif.), using the wild type PNMT cDNA open reading frame (ORF) in the pUni/V5-His-TOPO (pUni) vector (Invitrogen) as template. Specifically, the full-length wild type ORF (GenBank accession number J03727) was amplified using human brain Marathon-Ready cDNA (Clontech) as template. The resultant PNMT cDNA was subcloned into pUni, a vector that is only 2.3 kilobases in length, so it is well suited for performing “circular PCR” during site-directed mutagenesis. […]
PNMT Enzyme Activity: PNMT activity was measured using a method based on that of Molnicoff et al. (1971) J. Pharmacol. Exp. Ther. 178(3):425-431. […] “Blank” samples included the same quantity of COS-115,000×g supernatant from cells that were transfected with “empty” pCR3.1 expression vector, making it possible to correct for endogenous activity. Reaction mixtures were incubated at 37° C. for 30 minutes, and reactions were stopped with 500 μl Borate Buffer (pH 10). ^14C-N-methyl-octopamine was extracted into toluene containing 20% isoamyl alcohol, and radioactivity of the extracted ^14C-N-methyl-octopamine was measured in a liquid scintillation counter. […]

B1: WT: recombinant wild type (reference) human PNMT polypeptide, SEQ ID NO:8, expressed in COS-1 cells (protein)
chain: MSGADRSPNAGAAPDSAPGQAAVASAYQRFEPRAYLRNNYAPPRGDLCNPNGVGPWKLRCLAQTFATGEVSGRTLIDIGSGPTVYQLLSACSHFEDITMTDFLEVNRQELGRWLQEEPGAFNWSMYSQHACLIEGKGECWQDKERQLRARVKRVLPIDVHQPQPLGAGSPAPLPADALVSAFCLEAVSPDLASFQRALDHITTLLRPGGHLLLIGALEESWYLAGEARLTVVPVSEEEVREALVRSGYKVRDLRTYIMPAHLQTGVDDVKGVFFAWAQKVGL
modifications: Homo sapien
Km ([1]; substrate SAM, read-out: Apparent Km (SAM)): 6.6 µM
Km ([1]; substrate octopamine, listed as WT PNMT protein, read-out: Apparent Km (octopamine)): 13.6 µM
Km ([1]; substrate octopamine, read-out: Apparent Km (octopamine)): 23.5 ± 3.1 µM
% WT Enzyme activity [2]: 100 % WT
